Source: the DeepSol protein solubility set

experiment: soluble on expression in E. coli; label from the status in PepcDB or PDB records

Sequence | soluble on expression in E. coli
MSNSYEGCGDLTIFVAVALNKVIGHKNQIPWPHITHDFRFLRNGTTYIPPEVLSKNPDIQNVVIFGRKTYESIPKASLPLKNRINVILSRTVKEVPGCLVYEDLSTAIRDLRANVPHNKIFILGGSFLYKEVLDNGLCDKIYLTRLNKEYPGDTYFPDIPDTFEITAISPTFSTDFVSYDFVIYERKDCKTVFPDPPFDQLLMTGTDISVPKPKYVACPGVRIRNHEEFQYLDILADVLSHGVLKPNRTGTDAYSKFGYQMRFDLSRSFPLLTTKKVALRSIIEELLWFIKGSTNGNDLLAKNVRIWELNGRRDFLDKNGFTDREEHDLGPIYGFQWRHFGAEYLDMHADYTGKGIDQLAEIINRIKTNPNDRRLIVCSWNVSDLKKMALPPCHCFFQFYVSDNKLSCMMHQRSCDLGLGVPFNIASYSILTAMVAQVCGLGLGEFVHNLADAHIYVDHVDAVTTQIARIPHPFPRLRLNPDIRNIEDFTIDDIVVEDYVSHPPIPMAMSA | soluble
MKRRESSPLISTILGIRYGRCVMGNFSIVIPTYNERDNIVKLVEEINRIVPYNSRILIVDDNSPDGTALILQELNIHNLTVLIRHNERGLGSALRYGISKAIELESDFIVTMDADFSHNPKYLPEMMKIALNENCDLVIGSRYVIGGGIENWSLSRRIISKGANYLFKLVSHSPIMDNTSNYRIYSRRAALLALECDTTNGYEFQICSIFKIIRNNLKIKEYPIIFVDRKTGKSKLNLKEILNWFLYIIRLSLSFLEHHHHHH | not soluble
MPLPPDITFDSLALIKMHSQNMKRILEVTLAKFTVNLSIVTVYRYLTARAYLKKNIEAEFEILKDIYNIVPLLDDIAIKAAQIEANLIKKEITLDMEDIITATTAIYTNSLLVTDDPKRYEPIRRFGLDTMPLDKFIKEVELMVEKELI | soluble
MSLKVVIGYLALDDWEFESLFPTIEWKYLTHINASFARVKADGTLNINPVRKRIESVRETAHKHNVKILISLAKNSPGEFTTAINDPKARKELIQQIIAFTKEYKLDGFDIDYEEYDNWDKNFPSLLVFARGLYLAKEKNMLMTCAVNSRWLNYGTEWEQYFDYINLMSYDRGAFTDKPVQHASYDDFVKDLKYWNEQCRASKSKIVGGLPFYGYSWEESLQGAVDDVRGIRYSGILKHLGNEAADKDNIGKTYYNGRPTIANKCKFIKENDYAGVMIWQLFQDAHNDNYDLKLINVVGREMMEEGHHHHHH | soluble
MIKKQDPLNHPESVDVAIIGAGPAGAVAAALLRQAGQQVLVLERQHFPRFSIGESLLPQSMAYLEQAGMLRAVVEAGFQYKNGAYFVHGDKTAAFDFRDKHSDGWGTTYQVERAAFDQILINCAADQGADVRFGHSVRAVQPGDAPVLEVQTESGDTYTVHARFILDASGFGRVLPRLLNLEAPTGMPLRAALFSHVQDALPAGMTDRNKICIAVHPERRDVWYWMIPLANGRSSVGCVAEASFLDIPEAEREAALRALIRAEPNIASLIGDAPFLMPVRHIGGYAANVEKLHGPGYALLGNAGEFLDPVFSSGVTIALRSADLAVRALLRQLAGETVDWQSVYDVPLRRGIDTFRAFIERWYTGELQDIIFHPQQAPGIRRMISAILAGYAWDETNPFVADPVRRLNTLHEVCRLEAVLEHHHHHH | not soluble
MGSDKIHHHHHHMADNTDNLNSFRALALQVTCHAVNQATDRHEARSLMQNSINRLAQQIAASIAFIGFDCRLIVLPEYFLTGFPMGDSLAGWAEKACIEMAGAEYEALGKIAQKHKIFLAGNAYEVDPNFPGLYFQTCFILDPSGSIVLRYRRLNSLFAPTPHDVWDKYLDCYGLEGVFPVAKTAIGNLAALASEEILYPEVARCLAMRGAEIFVHSTSEVYNKNLTPKDAAKITRAVENMAYVVSANTAGIANIAIPIASADGGSKIIDHRGIVLAETGAGESMAAFAEIDLGALRRDRRRPGLHNLLARQRFELYAESYHQSHFYPANTMLEGEIDRKHFLQTQQATIDRLAQLGII | not soluble
SLTRRADDGPLVLTGANAPMSATTASGQADASFFDPGLLRRFGITRVGDVTGLDIIGIPVWFAARPNSRGLSVSQGKGLFADQARLSAIMEAIEGAVAEETRRHVTAFGSIEEMRNKGVPLIPFETVGRIDPDALDLRKERAWVKGTSIRQQQEVFAPYELIGMDFRAEFPWDRQAFRMSSQGLAAGFEQDHAVLHALLELIENDASFLVDTFETRAITPQPFLLSAGMDSLLDDLIQHLSNIGLPPSFFDLTNALGVPVVMASLPRSLQAEDGPATRSAAGAACRPNTHAAAMAALLEAIQSRLTDISGARDDLSPLRYQRDLSTSGPTASRAQPLRQMPADLNFPESDLSLPPWRQLAEHLFARGIEDIHVFPLETEVSGLHVVRILASGLAPAGGGLQHISPRTLDHLLNLGGT | soluble
MDFPTISRSPSGPPAMDLEGPRDILVPSEDLTPDSQWDPMPGGPGSLSRMELDESSLQELVQQFEALPGDLVGPSPGGAPCPLHIATGHGLASQEIADAHGLLSAEAGRDDLLGLLHCEECPPSQTGPEEPLEPAPRLLQPPEDPDEDSDSPEWVEGASAEQEGSRSSSSSPEPWLETVPLVTPEEPPAGAQSPETLASYPAPQEVPGPCDHEDLLDGVIFGARYLGSTQLVSERNPPTSTRMAQAREAMDRVKAPDGETQPMTEVDLFVSTKRIKVLTADSQEAMMDHALHTISYTADIGCVLVLMARRRLARRPAPQDHGRRLYKMLCHVFYAEDAQLIAQAIGQAFAAAYSQFLRESGIDPSQVGVHPSPGACHLHNGDLDHFSNSDNCREVHLEKRRGEGLGVALVESGWGSLLPTAVIANLLHGGPAERSGALSIGDRLTAINGTSLVGLPLAACQAAVRETKSQTSVTLSIVHCPPVTTAIIHRPHAREQLGFCVEDGIICSLLRGGIAERGGIRVGHRIIEINGQSVVATPHARIIELLTEAYGEVHIKTMPAATYRLLTGQEQPVYL | soluble
MGSDKIHHHHHHMLEQQATIVDVNESNLNQVLEHSATLPVLFYFWSARSQHCVELEPVLDKLAQEYAGQFVLAKVDCDAEQRVAAQFGLRSIPTVYLFKDGQPLDGFQGPQPEEAVRELLKRALPKEEELKVAQAQQLIQEDKLPEAMQLLKDAWQLSQQRSDIGLMLAEVQIQIKRSEDAEAVLAAIPLQDQDTRYHSLVAQIELLKQAADTPEIQHLQQQLDADPQNADLAVQLALQLHQVSRNEEALELLMGFLKKDLAVANGSARKTLMDIMAALGTSDALAARYRRQLYSLLY | not soluble
MGSDKIHHHHHHMTDKLSPRGRPLYLGSRGRHTRFSRIADSVADSFNLSKELTTATLLAAVNSALRGKASITINQDWDEPVNAFFLVCAESGGGKSPSNNFFKQPQLNFQTEWNEQNKNLYLRASVDKKYFAQKLKKHTQQAAELDYGNPKALEQYHAETTRLTEAYEKALRCQPLELFVDDVTNKSLIEAMSRQDGRIAIMEPEVSAFRHIVRAKEVSPILDTILKSFSGERIQLNRAGEPALTIERPILALNIMVQPPIMMQLAKNKAIQGRGILGRFFVTIVEKPRYSRFRHDPIEVPPEVRFEYQDTIYKILTTVEKSKDLLSFSLSDEATEAWLAVKDDVESSIPHNPPPGYGEWKAKAGKHLLHLACLVHIFEHQASNTIIDKRSFELAELLFNFFDKNMWSMLRFMYPEIDFLVAVKALSSGKLYNMGEFSARDMQRALGTYNSTQIAQGIDWLLDNRAIDPIEHRHIENSAKTTMHVGRKKSPTYKIIDAEWHYLRDELL | not soluble
MVQISDLPRDLTEEVLSRIPVTSMRAVRFTCKKWNTLSKDRSFTKKHLRGARAAAKKKQTKEFQVIMMIQFRVYLYSVNLLNPSIERIGKLISLDVEDHVDISKIFHCGGLLLCITKDISRLVVWNPYSGQTRWIKPRNSYHRLDRYALGYEEKNKSCRCYKILRFMDDYEDDRALRLIREFEIYDLNSDSWKVVNVTPDWDVEFYHRGLSLKGNTYWFAQEKLPPLPRGRVITISDMADFLLCFDFTRERFGPRLPLPFHSFVEDTVTLSSVRDKKLAVLFQPCSASTVKIWISRKIEPNAVSWRKVFLAVDMKSLTGFQFDINAASFFVDEKKKVAMVLDKDRFSYKFTRNIAYIIGKKGYFEKVDLGESTVSSCASLVCSYVPSSVQI | soluble
MFARSAQRFSDGDRLEVGGWPVRLKVDGRARRISLRVDRARSEIVALSPTPRRLNEAVAFAQEKAGWIAKQLAALPERMSLAPGGVLRLNDKPFRLEVGAGRARIDGDRIVAPDDANWGLKVIRLAKREALTVLTERTAIHAAALGRPVPSVAIADPKARWGSCRPATSRAPAAIRYSWRLILAPAVVADYVAAHECAHLIEANHGPRFWALCEQLIGDPTPHRAWLRAHAAELHAIGALEHHHHHH | not soluble
MAHHHHHHMKPVYRYAMNHEYNINSICPIAYSDQFATADDATVLLWCTEYPDTSIETHDMRSPYEDGPRETICAVRNFPHEPFLFFVATSGGSVRVVDTRQTLRWGDQAAQAFINPPREEDEPFSNVTNSICDCALSPSGRYIAGRDFMSICLWDIRMAGSGGARNAPATPRRQAPAARGGDGNPECSMVRRWALHPHLRDDLDTIYQSNLLFDKFDVQFLSSRQVCTGGFNNTLYTMDVEGTSADAASDIRTFQLLKTEGISEFRRTTVSAHRRGEDRISTGQGLGSRMTLMSRPYMSMSGACGMMVACGQAVLQLSYNGLSK | not soluble
MGSDKIHHHHHHMTMTNTPRQDSPFEKPVRVRAGFSLTFDVPYATPMIFVVQPQDRLSPTGTRQRIIDQRPLAAAEGIHTYTDTHGNLIWRTVAQPGEFTIGHDLIAEIERRPDPQLPGLRKMMVEELPDDVLQYLLPSRYVDSDLVSAEAWERFGNVQGGWAQVQAVCDYLFDTCVYGYGSNSTTTASQALGSGRAVCRDFAHMGVAFCRALNIPARYVCGYMPDIDYPPDPVPMDFHAWFEAFIDGEWRTFDARHNIPRTGRVLIAQGRDASDVAFTTSFGSAKLVNMKVWADETDFDNTLDIAPNPRIF | not soluble
MSLSPDSAHQQVSLRGGSGSEFMIVDITDGRLLGTIDSAKAMSQTHPGAVYLHQGESFVIDELDLEENLALARPELPDYTTYARSDTDIRITSAPLEDEVFDAGGGLWVANVEVQVTDRVTGYVTRLSDGTTLDATPLYLPPQILQTRAVAYTIDPLALEAMGIPAADIPGALHAAEHAAIGMLPLLATCDRWDIGGVSTALHADTGYPTVFVYDGMDGGAGFADTGFRRFAQWIEATFEVVRSCSCESGCPSCVQSPKCGNGNNPLDKAGAIKLLGAMVTLLGTSEGHHHHHH | not soluble
MQIDDALLQRLEKLSMLEIKDEHKESVKGHLAEVLGFVENIFALETSALKTDIELCTPLREDEPKSQPNTAKEILSQNKHSQDHYFVVPKIIE | not soluble
MSLIYFFMVDAVELSRKYEGKIEIYPKVPITSYNDFALIYTPGVAEVSKAIYKDPDKSFELTSRWNTIAVVTDGTRVLGLGNIGPTAAMPVMEGKSLLFKYLGGVDAIPLPINVKSADEFTNVVKALETSFGGINLEDIESPKCFYILEKLQSMLNIPVWHDDQQGTAAAILAGLINAMILTNKDPKESKVVFYGAGASNIAAARILAKYGFKYENIVMIDSKGPLYADREDVDHLMLHHKWKYELAIKTNKWEAKEIKDAFSGADAVVAASTPGPNVIKKEWISLMNKEAIVFALANPVPEIWPQDAKEAGAKIVATGRSDFPNQVNNSLIFPAIFRGVLDSRAKAITDEMTIAASEALAKYARDRGINENYIIPRMDEWEAFYEEAAAVASKAVELGLARVKKSREEFREIAKERIIRARKIMNLVISTWSPEGHHHHHH | not soluble
